Key:
[1] = target: human T-cell receptor beta chain with variable region Vbeta 7.1 (H. sapiens rearranged TCR Vbeta 7.1) (H. sapiens); experiment: cell-based or functional assay
[2] = target: T-cell surface glycoprotein CD4 [Homo sapiens] (Homo sapiens) (UniProt P01730); experiment: cell-based or functional assay

human T-cell receptor beta chain with variable region Vbeta 7.1 (H. sapiens rearranged TCR Vbeta 7.1) (H. sapiens), sequence (A0A577 whole entry, form in doubt): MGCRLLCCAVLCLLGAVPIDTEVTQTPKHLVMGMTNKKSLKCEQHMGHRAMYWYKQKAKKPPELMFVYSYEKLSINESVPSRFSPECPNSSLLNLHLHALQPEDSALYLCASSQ

- TCR Vβ7.1-positive cells remaining in the control culture (flow cytometry) [1]: 1.2%
- CD4-positive cells remaining in the control culture (flow cytometry) [2]: 45%
Substance: CART20 anti-CD20 chimeric antigen receptor (scFv of anti-CD20 monoclonal antibody Leu16 in the third-generation CAR backbone), expressed on transduced human T cells
